Biological target: T1, RG1 polypeptide (native RG1 protein, purified from transfected BHK cells) (human, UniProt Q9BUD6 27-331)
T1 construct: The Biacore assay used BHK-RG1; The Western blots used RG1 from COS, LNCaP and BHK cells and from lysates; also called nRG1; BHK-RG1
T1 chain: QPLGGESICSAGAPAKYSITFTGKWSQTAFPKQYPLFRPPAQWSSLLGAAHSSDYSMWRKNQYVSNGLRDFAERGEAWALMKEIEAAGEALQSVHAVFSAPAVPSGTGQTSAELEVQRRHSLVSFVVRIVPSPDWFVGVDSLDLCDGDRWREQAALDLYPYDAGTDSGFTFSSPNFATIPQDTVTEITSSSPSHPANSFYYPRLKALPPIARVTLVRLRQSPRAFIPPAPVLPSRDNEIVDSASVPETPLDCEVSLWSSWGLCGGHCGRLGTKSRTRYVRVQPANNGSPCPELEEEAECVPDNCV
Experiment: BIAcore SPR; mab captured on anti-human IgG Fc, soluble BHK-RG1 12.5-400 nM, 1:1 Langmuir fit
Method: Kinetic constants (KD, kₐ and kd) of mab binding to native RG1 protein were determined by BIAcore using a capture format in which soluble, native RG1 protein was bound to immobilized mab on a sensor chip. ImmunoPure rabbit anti-human IgGFc (Pierce, 31142) was covalently immobilized to the Sensor Chip CM5 (Biacore, BR-1000-12) using standard amine coupling methods. 100 ug/ml antibody diluted in 10 mm acetate, pH 4.0 was used at 5 ul/min. HBS-EP (Biacore, BR-1001-88) was used as mobile phase. Unreacted sites were blocked with ethanolamine. Mabs were diluted to 200 nM with HBS and 50 ul was injected per cycle at 10 ul/min. Serial dilutions of BHK-RG1 (12.5-400 nM) were bound to the immobilized mab. Dissociation kinetics were measured immediately after the antigen injection was completed at 20 ul/min for 8 minutes. The surface was regenerated following each cycle using 25 ul of 10 mm glycine, pH 1.8 and then washed with HBS.
Data were fit to a 1:1 Langmuir model using the software provided by the instrument manufacturer (BIAevaluation 3.0), and kinetic constants were calculated.

Kd: 8.4 nM
koff: 0.00023 s⁻¹
kon: 29000 M⁻¹ s⁻¹
B1: human RG1 monoclonal antibody B (antibody, V domains shown)
VH: EVQLVQSGGGLVMPGGSLRLSCAGSGFTFSSYVMHWLRQAPGKGLEWVSVIGTGGVTHYADSVKGRFMISRDNAKNSLYLQMNSLRAEDTAMYYCARWGYYGSGSYENDAFDIWGQGTMVTVSS
VL: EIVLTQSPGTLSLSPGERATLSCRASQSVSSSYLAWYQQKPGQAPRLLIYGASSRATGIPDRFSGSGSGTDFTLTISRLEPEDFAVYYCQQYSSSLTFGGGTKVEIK
notes: Hybridomas were screened for human IgG,kappa, and the isotype of this clone is not explicitly stated; also called M ab B
